# Reference: publication PMC11100465, “EFhd2 co-aggregates with monomeric and filamentous tau in vitro” (Frontiers in Neuroscience, 2024)
# B1: recombinant human EFhd2 (natural protein, UniProt Q96C19 1-240, looked up)
# chain: MATDELATKLSRRLQMEGEGGGETPEQPGLNGAAAAAAGAPDEAAEALGSADCELSAKLLRRADLNQGIGEPQSPSRRVFNPYTEFKEFSRKQIKDMEKMFKQYDAGRDGFIDLMELKLMMEKLGAPQTHLGLKNMIKEVDEDFDSKLSFREFLLIFRKAAAGELQEDSGLCVLARLSEIDVSSEGVKGAKSFFEAKVQAINVSSRFEEEIKAEQEERKKQAEEMKQRKAAFKELQSTFK
# notes: wild type human EFhd2; No tag removal is described; also called hEFhd2; EF-hand domain 2 protein; source: E. coli BL21 (DE3), purified (HIS-select Nickel resin)
# Biological target: T1, full-length human tau (hTau40) (human, UniProt P10636-8 1-441)
# T1 construct: plasmid PT7CHT40; The same construct was used as monomer (no inducer) and as filaments or oligomers induced with 75 uM arachidonic acid; No tag removal is described; also called hTau40^m (incubated without inducer, monomeric); hTau40^ARA (incubated with arachidonic acid, filaments and oligomers); source: E. coli BL21, purified (boiled lysate, HIS-select Nickel resin)
# Test: ELISA; nondenaturing sandwich ELISA; Tau13 capture antibody, anti-EFhd2 detection antibody; 2 uM hEFhd2 and 2 uM hTau40 co-incubated overnight at room temperature without arachidonic acid (hTau40^m/hEFhd2), then diluted in 1X PBS
# Details: both partners purified
# T1 sequence (P10636 other isoform, or with tags, fused parts or gaps): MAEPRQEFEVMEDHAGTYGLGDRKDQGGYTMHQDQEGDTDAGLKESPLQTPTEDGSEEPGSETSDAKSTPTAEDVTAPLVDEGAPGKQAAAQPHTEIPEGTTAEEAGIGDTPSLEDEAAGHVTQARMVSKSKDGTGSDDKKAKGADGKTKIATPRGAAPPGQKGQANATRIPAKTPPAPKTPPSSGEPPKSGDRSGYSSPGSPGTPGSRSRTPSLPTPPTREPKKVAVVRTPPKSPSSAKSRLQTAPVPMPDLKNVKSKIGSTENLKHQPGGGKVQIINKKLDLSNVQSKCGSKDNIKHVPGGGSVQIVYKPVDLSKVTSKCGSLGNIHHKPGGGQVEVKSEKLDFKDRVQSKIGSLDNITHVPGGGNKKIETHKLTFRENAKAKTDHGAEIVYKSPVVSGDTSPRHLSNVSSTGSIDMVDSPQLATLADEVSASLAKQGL
binder,measurement,value
B1,binding result,binds
